This note sets out measurements from paper PMC7403387.

The target in the assay is Neural cell adhesion molecule (NCAM1), endogenous in Vero cells (African green monkey (endogenous in Vero)).

Regarding “Zika virus (ZIKV) E protein on the surface of purified mature virions, labelled with the maleimide-diazirine-biotin probe (natural protein)”, the decrease in ZIKV attachment to Vero cells (RT-qPCR) with NCAM1 ECD protein or anti-NCAM1 antibody is 40%.
